Reference: the RNAGym collection of RNA variant scans (doi:10.1073/pnas.2313332121)

B1: TPR t1 (parent)
chain: GACCAAUCUGCCCUCAGAGCUCGAGAACAUCUUCGGAUGCAGAGGAGGCAGGCUUCGGUGGCGCGAUAGCGCCAACGUCCUCAACCUCCAAUGCAUCCCACCACAUGAUGAUGCCUGAAGAGCCUUGGUUUUUUG

Variants of: B1
Assay: polymerase ribozyme fitness, log enrichment relative to wild type (log ratio); higher = more active; in vitro selection for triplet polymerase activity
In short: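 Only genotypes with ≥10 input reads and ≥1 read per output were kept after Illumina sequencing of input and output libraries. These libraries were PCR-built, transcribed mutants of each subunit of a heterodimeric triplet polymerase ribozyme, each put through one triplicate in vitro selection round with frozen incubation at −7 °C, gel excision of extended constructs, streptavidin-bead capture and RT-PCR. Fitness is a logarithmic ratio of genotype enrichment to wild-type enrichment, from inverse-variance-weighted replicate averages, with the logarithm in base 2.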

Point of comparison: A26G C62A C82U, “polymerase ribozyme fitness (log ratio)” value -3.78. Against it:
- C22U G71U — lower, -4.03
- G23C G58A G61A C94G A111C — lower, -7.65
- A26U U81C — higher, -3.05
- A27G U55A — higher, -2.6
- G23C C34U U38A A46U C86G G110C — lower, -8.09
- A27G C40G — higher, -1.89
- A26U U54G U78C C89U — lower, -5.2
- A26U C56A U59C — lower, -4.4
- A27C G120U — lower, -4.08
- A27C G120A — higher, -3
- C22G U38A C64U G77U G120A — lower, -3.99
- C22U C53G G61A U106A A118G — lower, -5.66
- C22U C49U C89A C123U — lower, -6.02
- A24G A111G G122U — lower, -5
- A26U G69U — higher, -1.44
- G23U A121C — higher, -3.5
- A24G G48A A83G — higher, -2.89
- A24C A37C A121U — lower, -6.59
- C22G U106C C123G U133G — higher, -2.48
- G23A G120C — higher, -2.89
- G23A G120A — lower, -4.02
- A27G A29C G36A A46C C72G U106C U112G U116A — lower, -7.34
- C22U A37C — lower, -4.23
- C22G G61A G93A — within 0.2 log units, -3.75
- G25A A43G C72U A111U — lower, -6.94
- A24G C56G C72U C86U U92A U129C — lower, -6.8
- G23A G77C G120C — lower, -6.71
- A26C A43C A46C C56G C86A A90G C123G — lower, -6.74
- C22U U38G C73U — lower, -4.47
- A26U C72U C124U — higher, -1.98
- A26U U54A G110A — lower, -5.04
- C22U A37U A100C — lower, -5.02
- C22U U54G — higher, -3.24
- A26G G45A G120C — higher, -1.66
- C22G U96C — higher, -3.36
- G23U G52A C53G C115U — lower, -7.2
- C22G C94G — lower, -4.33
- G23A G61A U87C — lower, -6.59
- C22G G110U U112G — lower, -7.26
- A27C A43G — lower, -5.95
- C22U G63C G120U — lower, -4.89
- G23U A37G C94G — lower, -6.35
- A26U C82G C97A C98A U112A — lower, -6.74
- A26U C53A U78A G110A — lower, -5.05
- C22U A41U C73U C82G A83U C124U — lower, -4.15
- G25U G39U G44U C73A — lower, -6.92
- C22U A66U G120A — lower, -4.81
- A26U A43U A121U — lower, -4.81
- C22G G23A G61U C89U C114U — lower, -3.99
- A26G U109G — lower, -6.07
- C22U A24U G57U C82U C115A — lower, -6.34
- A24U C53G C72U C89A C124A — lower, -7.6
- A24G G44U G61A A74U U133G — higher, -3.56
- C22U G120C — higher, -2.63
- A26U G42C — lower, -6.73
- G23C A27C C53U U54C C62A C88G C99U C124U U130A U131G — lower, -7.2
- G23C U59C C98U C101A U112C — lower, -7.02
- A24G C40G G52U — lower, -4.31
- A26C U92A — lower, -5.95
- C22U C40G G69U C79U C82G — within 0.2 log units, -3.66
- C22U C72A — within 0.2 log units, -3.91
- A26U C70U — lower, -4.13
- A26U C70A — lower, -5.16
- C22U C62A U106G A108C A121G G122U — lower, -7.34
- A26G G42C C72A — lower, -5.15
- A27G G63A C79U — higher, -1.86
- C22G G39C A50G G51A C115U — lower, -5.65
- A27G G52A C56U — higher, -2.59
- A26G C62U U133A — lower, -4.26
- A26U C72A — higher, -2.97
- A26G U129C — higher, -2.73
- G23A C56U G110C — lower, -5.74
- A26G G47A C49G G71U — lower, -4.24
- A26G G63A C124G — higher, -0.0451
- A26U U96A C114U G117A — lower, -5.98
- G23U A24C C31G C72U A83C A90U G93A G107U U109A — lower, -6.51
- A24G C40A G117A C124G — lower, -4.17
- C22U A43C C123G — lower, -4.32
- A26G G71C C79G — within 0.2 log units, -3.86
- A27G C89A — higher, -3.54
- C22G G23A U125A G128U — lower, -4.85
- A26G G36U C72G — lower, -4.71
- C22U C53A C72U C98U C123U — lower, -4.73
- G23U C123U — lower, -4.37
- G23A G77U — lower, -6.47
- G23U G42A A46U G69U U109A C123U — lower, -5.99
- A26U G69A U78G U106A — lower, -4.44
- G23A C40A — lower, -4.86
- C22U C73G C82A G120U U129A — lower, -5.92
- A24G C114G — within 0.2 log units, -3.83
- A26G G69A A91U U133G — lower, -6.73
- G23C G120C — lower, -5.28
- A27C C53A C94G — lower, -4.6
- A26U G61U U112C — higher, -2.62
- A24C G120A — lower, -4.02
- G23A G48A C86G — lower, -6.91
- A26C A27C U59A C72U C123A — lower, -6.08
- G23C C123A — lower, -6.41
- A26G G42C — lower, -4.99
- G25A A121U — higher, -2.9
- A24C G39C C114U G120C — lower, -5.54
- A27G A50C A111U — higher, -3.29
- G25U C56U C72G C123G — lower, -6.31
- A27G G57U — higher, -2.3
- A27C G61A — lower, -4.32
- A26G C53G G77A — higher, -2.93
- A24G C124A — higher, 0.386
- G25U C34U G63C G93C G117C A121C G122A G127U — lower, -6.74
- C22U A41C G60A C99U G110A U129G — lower, -6.8
- A26C U54G C70A U109G — lower, -5.98
- C22G G42C C115U — within 0.2 log units, -3.85
- G25A G60C — lower, -7.2
- A26G G120A — higher, -0.696
- C22U G51A G61C U109A G117C — lower, -7.16
- A26U G44C G48C C101A A111G U112A C124A — lower, -8.24
- A26G C73A — higher, -1.78
- A26G G60C — higher, -3.07
- A26C U106G — lower, -6.98
- A27G C53U C72A C102U — within 0.2 log units, -3.85
- C22G U87A C114A — higher, -2.89
- A26U C124U — higher, -2.17
- A27G A46C A50U — lower, -4.64
- A26U G36C — lower, -4.29
- A24U G35C C49A G63A A111G C124U G135A — lower, -6.36
- A27G C49A U78C — higher, -2.36
- C22G C94U C101G — lower, -5.92
- C22U C62A — lower, -4.41
- A24U A83U — lower, -7.24
- A26U G127C — higher, -3.57
- A24G G71C G120U — higher, -2.78
- C22G U92G — lower, -5.35
- A24C C56U C114G — lower, -5.71
- G23A G48U — lower, -5.02
- A24G C72G C94A — higher, -2.87
- A24G G47A C73A — higher, -1.58
- G23A A50U G61U G71C A100C A105C U116C U125A G128U — lower, -5.77
- A26U C53U G71C A118U — higher, -3.17
- A26G G71A — higher, -2.97
- A26U C72G G120A — higher, -2.51
- G23U A29G C70A A83U C85A C115U — lower, -7.23
- A27G C85A — higher, -3.2
- A24C G63A — lower, -6.87
- C22U G69A C104G A111C — lower, -7.35
- C22U C82U — lower, -4.56
- C22G C86U C123A — higher, -3.08
- A24U C34A U59A G63U C80A G113A — lower, -7.46
- C22U A46C C70U — lower, -6.66
- C22G G110U U125G — lower, -4.31
- A24U C49A C82G U112A U133C — lower, -4.62
- A24G G42U G60U C88G A121G — higher, -1.74
- C22U G61A — higher, -3.53
- A27C C86G U133A — lower, -5.16
- G25U C72U — lower, -6.27
- A26G G69U — higher, -2.23
- A27C C123A — higher, -3.14
- C22U G69C C82A U112C A121C U132A — higher, -3.46
- A26G C53A U81G — higher, -3.49
- A24G U87A — higher, -1.94
- A24U C72G — lower, -5.64
- G25C A26G C28A C72A G110A — lower, -5.56
- C22G G69A — within 0.2 log units, -3.64
- C22U A43G G61U C115A — lower, -5.75
- A26G C82A G113A A119U G120C — higher, -3.14
- G23C G44U C88U A121G — lower, -6.39
- G23A G61U — lower, -4.38
- G23C A27G G110U — lower, -6.38
